Patent US8530235B2, “Medium that supports culture of an oocyte and modulation of granulosa cell apoptosis” (Adelaide Research & Innovation Pty Ltd., priority 2005, dated 2013)

Tested on: cumulus-oocyte complexes
Test: Study II: oocyte developmental competence after IVM, IVF and embryo culture (cleavage, blastocyst)
Assay type: cell-based, Bovine
Description: Bovine ovaries were collected from local abattoirs and transported to the laboratory in warm saline (30-35° C.). Cumulus-oocyte complexes (COC) were aspirated from antral follicles (2 to 8 mm diameter) using an 18-gauge needle and a 10-ml syringe containing ˜2 ml aspiration media (Hepes-buffered Tissue Cultured Medium-199; TCM-199, ICN Biochemicals, Irvine, Calif., USA) supplemented with 50 μg/ml kanamycin, 0.5 mM sodium pyruvate, 50 μg/ml heparin and 4 mg/ml fatty acid-free bovine serum albumin (FAF-BSA; ICPbio Ltd, Aukland, NZ). Intact COC with compact cumulus vestments greater than five cell layers and evenly pigmented cytoplasm were selected under a dissecting microscope and washed twice in Hepes-buffered TCM-199 and once in Hepes-TCM199 supplemented with 10% fetal calf serum (FCS) (Invitrogen, Carlsbad, Calif.). Base media for oocyte maturation was Bovine VitroMat (Cook Australia, Eight Mile Plain, Qld, Australia), and is a medium based on the ionic composition of bovine follicular fluid and also containing 100 μm glycylglutamine (Glutamax; Gibco Invitrogen, Carlsbad, Calif., USA), 100 μm N-acetyl-1-cysteine, 100 μm 2-mercaptoethylamine, 1% v/v non-essential amino acids (100×; Gibco Invitrogen), 2% v/v essential amino acids (50×; Gibco Invitrogen), 4 mg mL-1 fatty acid-free BSA and 5.6 mm glucose. […] (Puregon, Organon, Oss, Netherlands). Complexes were cultured pre-equilibrated […] drops overlaid with mineral oil and incubated at 39° C. with 5% CO2 in humidified air for 24 hour. […]
Recombinant mouse GDF-9 and recombinant ovine BMP-15 were produced in-house as previously described (Kaivo-Oja et al. (2003) J. Clin. Endocrinol Metab 88:755-762; McNatty et al. (2005) Reproduction 129:473-480) using transfected 293 human embryonic kidney cell lines (293H). Recombinant proteins were partially purified using hydrophobic interaction chromatography (HIC), as recently described (Hickey et al., (2005) Biol Reprod on line), and their concentrations were then estimated by Western blot (Kaivo-Oja et al., 2003 3) J. Clin. Endocrinol Metab 88:755-762). Control conditioned medium (293H) was also produced from untransfected 293H cells and purified by HIC.
All experiments were carried out using frozen semen from the same bull of proven fertility. Briefly, one straw of semen stored in liquid nitrogen was rapidly thawed in a water bath for one minute. The semen sample was layered on top of a discontinuous (45%:90%) Percoll gradient (Amersham Bioscience) and centrifuged at room temperature for 20-25 mins at 700 g. The supernatant was removed and the sperm pellet was washed with […] Bovine Vitro Wash (Cook Australia, Eight Mile Plains, Qld, Australia) and centrifuged for a further 5 minutes at 200 g. spermatozoa were resuspended with TVF medium (Bovine Vitro Fert, Cook Australia), then added to the fertilization media drops (Bovine Vitro Fert, Cook Australia, supplemented with 0.01 mM heparin, 0.2 mM penicillamine and […] hypotaurine) at a final concentration of 1×10^6 spermatozoa/ml. COCs were inseminated at a media density of […] of IVF medium per COCs for 24 h, at 39° C. in 6% CO2 in humidified air.
Cumulus cells were removed by gentle pipetting 23-24 h post insemination and five presumptive zygotes were transferred into 20 μl drops of pre-equilibrated Cook Bovine Cleave medium (modified SOFaa, Cook Australia) and cultured under mineral oil at 38.5° C. in 7% O2, 6% CO2, balance N2, for five days (day 1 to day 5).
On Day 5, embryos were transferred in groups of […] drops of pre-equilibrated Bovine Vitro Blast (Cook Bovine Blast medium; Cook Australia) at 38.5° C. overlaid with mineral oil and cultured to Day 8. Embryos were assessed for quality at Day 8 according to the definitions presented in the Manual of the International Embryo Transfer Society and were performed independently and blinded by an experienced bovine embryologist. […]

[1] = 1st REP, COC IVM 24 h, 175 ng/ml GDF-9, 10% BMP-15, 10% 293H

B1: BMP-15: Recombinant ovine BMP-15 produced in-house in transfected 293H cells, partially purified by hydrophobic interaction chromatography; dosed as % v/v (protein, UniProt Q9MZE2 269-393, looked up)
Bone morphogenetic protein 15: QAGSIASEVPGPSREHDGPESNQCSLHPFQVSFQQLGWDHWIIAPHLYTPNYCKGVCPRVLHYGLNSPNHAIIQNLVSELVDQNVPQPSCVPYKYVPISILLIEANGSILYKEYEGMIAQSCTCR
[1]
  BLACTOCYST RATE: 58%
  CLEAVAGE RATE: 76%
2nd REP
  BLACTOCYST RATE: 63%
  CLEAVAGE RATE: 90%
3rd REP
  BLACTOCYST RATE: 50%
  CLEAVAGE RATE: 80%
4th REP
  BLACTOCYST RATE: 50%
  CLEAVAGE RATE: 85%
AVERAGE, control COC 41.5%
  BLACTOCYST RATE: 55%
AVERAGE, control COC 84%
  CLEAVAGE RATE: 83%
Alone or in combination with GDF9, compared with GDF-9 alone or no supplement
  number of oocytes that reached the blastocyst stage post insemination: more effective

B2: GDF-9: Recombinant mouse GDF-9 produced in-house in transfected 293H cells, partially purified by HIC (protein, UniProt Q07105 307-441, looked up)
Growth/differentiation factor …: GQKAIRSEAKGPLLTASFNLSEYFKQFLFPQNECELHDFRLSFSQLKWDNWIVAPHRYNPRYCKGDCPRAVRHRYGSPVHTMVQNIIYEKLDPSVPRPSCVPGKYSPLSVLTIEPDGSIAYKEYEDMIATRCTCR
[1]
  BLACTOCYST RATE: 50%
  CLEAVAGE RATE: 88%
2nd REP
  BLACTOCYST RATE: 58%
  CLEAVAGE RATE: 92%
3rd REP
  BLACTOCYST RATE: 35%
  CLEAVAGE RATE: 84%
4th REP
  BLACTOCYST RATE: 36%
  CLEAVAGE RATE: 83%
AVERAGE, control COC 41.5%
  BLACTOCYST RATE: 45%
AVERAGE, control COC 84%
  CLEAVAGE RATE: 87%
